The source of these data is article PMC3084267, “Antibody Engineering Using Phage Display with a Coiled-Coil Heterodimeric Fv Antibody Fragment” (PLoS ONE, 2011).

Sequences and labels used below:
B1: X96 scFv (VH-CDR3 mutations of X65 in the X72 framework) (scFv, V domains shown)
VH: EVQLVQSGGGVVQPGGSLRLSCAASGYTFTNYGMNWVRQAPGKGLEWVGWINTYTGEPTYAADFKRRFTFSLDTSKSTAYLQMNSLRAEDTAVYYCAKYPYYYGRSHWYFDVWGQGTLVTVSS
VL: DIQMTQSPSSLSASVGDRVTITCSASQDISNYLNWYQQKPGKAPKVLIYFTSSLHSGVPSRFSGSGSGTDFTLTISSLQPEDFATYYCQQYSTVPWTFGQGTKVEIK
notes: as the VH of m7 (X72 framework) with the VH-CDR3 changes of X65; scFv linker; VL as in m7; likely as the VL of m4; source: Pichia pastoris X33 (pPIC6 alpha), culture supernatant, purified (Ni-NTA)
B2: X97 scFv (VH-CDR3 mutations of X65 in the X76 framework) (scFv, V domains shown)
VH: B1 VH with V37I, F68V, M83L
VL: B1 VL
notes: as the VH of m8 (X76 framework) with the VH-CDR3 changes of X65; scFv linker; VL as in m8; likely as the VL of m4; source: Pichia pastoris X33 (pPIC6 alpha), culture supernatant, purified (Ni-NTA)
B3: X76 scFv (humanization lead) (scFv, V domains shown)
VH: B1 VH with V37I, F68V, M83L, Y101H, R105S
VL: B1 VL
notes: as the VH of m4 (WT) with the stated framework changes (Kabat numbering); scFv linker; VL paired with the VH humanization library; likely as the VL of m4; Selected as ccFv on phage, converted to scFv; source: Pichia pastoris X33 (pPIC6 alpha), culture supernatant, purified (Ni-NTA)
B4: X64 scFv (VH-CDR3 variant S100aR) (scFv, V domains shown)
VH: B1 VH with Q6E, V11L, Y101H
VL: B1 VL
notes: as the VH of m4 (WT framework) with the stated VH-CDR3 change; scFv linker; Selected as ccFv on phage, converted to scFv; source: Pichia pastoris X33 (pPIC6 alpha), culture supernatant, purified (Ni-NTA)
B5: X65 scFv (VH-CDR3 variant H97Y, S100aR) (scFv, V domains shown)
VH: B1 VH with Q6E, V11L
VL: B1 VL
notes: as the VH of m4 (WT framework) with the stated VH-CDR3 changes; scFv linker; Converted to scFv; source: Pichia pastoris X33 (pPIC6 alpha), culture supernatant, purified (Ni-NTA)
B6: X63 scFv (VH-CDR3 variant H97Y, S100aT) (scFv, V domains shown)
VH: B1 VH with Q6E, V11L, R105T
VL: B1 VL
notes: as the VH of m4 (WT framework) with the stated VH-CDR3 changes; scFv linker; Selected as ccFv on phage, converted to scFv; source: Pichia pastoris X33 (pPIC6 alpha), culture supernatant, purified (Ni-NTA)
B7: X78 scFv (humanization lead) (scFv, V domains shown)
VH: B1 VH with S17T, S21T, F68V, Y101H, R105S
VL: B1 VL
notes: as for B3

Changes are numbered by the printed parent chain. Numbers in names are those of the source.

For the first experiment, the target named is T1, recombinant human VEGF (R&D Systems, 293-VE/CF) (Homo sapiens, UniProt P15692-4).
T1 construct: recombinant human VEGF, R&D Systems 293-VE/CF; also called VEGF antigen; source: bought: R&D Systems (293-VE/CF)
T1 sequence (P15692 whole entry): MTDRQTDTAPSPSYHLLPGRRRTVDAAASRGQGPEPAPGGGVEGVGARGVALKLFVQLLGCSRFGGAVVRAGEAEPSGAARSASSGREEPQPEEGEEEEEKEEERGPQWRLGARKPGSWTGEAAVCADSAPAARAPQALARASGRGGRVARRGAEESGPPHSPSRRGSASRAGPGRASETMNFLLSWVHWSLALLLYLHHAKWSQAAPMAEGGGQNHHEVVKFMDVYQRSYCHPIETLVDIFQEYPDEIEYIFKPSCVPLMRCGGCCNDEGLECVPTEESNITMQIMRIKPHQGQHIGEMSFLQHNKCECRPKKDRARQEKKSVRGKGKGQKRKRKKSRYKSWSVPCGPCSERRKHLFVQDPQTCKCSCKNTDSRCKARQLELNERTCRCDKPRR
Briefly: SPR; Biacore, 35°C; VEGF amine-coupled to a CM5 chip (about 300 RU); monomeric scFv (after Superdex 75) in PBS at 10 to 160 nM; global fit to 1:1 Langmuir model. The note with it: both partners purified.
On to B1, for which the Kd worked out at 0.11 nM.
Same read-out and setting: in the case of B2 it was 0.12 nM.

The target of the next experiment is T1, recombinant human VEGF (R&D Systems, …). In words: SPR; Biacore, 25°C; VEGF amine-coupled to a CM5 chip (about 300 RU); monomeric scFv (after Superdex 75) in PBS at 10, 20, 40, 80, 160 nM, 30 µl/min, 5 min association, 10 min dissociation; global fit to 1:1 Langmuir model. The following applies: both partners purified.
Take B3: the Kd worked out at 3.1 nM.
Regarding B4, the Kd was 5.4 nM.
On the same count and under the same terms, the same measure for B5: 1.5 nM; for B6: 2.2 nM; for B7: 5.9 nM.
